B1: NP_116010.1 (parent)
chain: HSLRAVSTDPPHHDHHDEFCLMP

Data set [1] covers variants of B1. As to the kind of experiment: protein stability index of a GFP-peptide fusion (GPS, HEK-293T) (PSI 1-6); higher = more stable. The settings on record: c terminus: native.
The variants in data set [2] derive from B1. The description is as above. The following applies: c terminus: native. The source holds these as a separate data set.

Results on 52 variants are retold here after the supplement of paper PMC10567573.

Regarding HSLRAVSTDPPHHDRHDEFCLMP [H15R], the protein stability index in data set [1] was found to be 2.32; in data set [2] it was 2.15. The matching figures for HSLRAVSTDPPHHDTHDEFCLMP [H15T]: 2.58 and 1.86. Consider HSLRAVSTDPPHHDWHDEFCLMP [H15W], for which the protein stability index in data set [1] was 2.14; in data set [2] it was 2.11. With HSLRAVSTDPPHHDYHDEFCLMP [H15Y], the protein stability index came out at 2.53 in data set [1] and 1.84 in data set [2]. In the case of HSLRAVSTDPPHHDSHDEFCLMP [H15S], the protein stability index in data set [1] is 2.76; in data set [2] it was 1.8. Taken in the same sequence, the figures for HSLRAVSTDPPHHDNHDEFCLMP [H15N] were 2.76 and 2.07.

Consider HSLRAVSTDPPHHDVHDEFCLMP [H15V], for which the figures for the protein stability index in data set [1] and in data set [2] were 2.81 and 3.14, respectively.

For the variant HSLRAVSTDPPHHDQHDEFCLMP [H15Q], the protein stability index was determined as 2.48 in data set [1] and 2.79 in data set [2]. The matching figures for HSLRAVSTDPPHHDMHDEFCLMP [H15M]: 2.56 and 2.16. The matching figures for HSLRAVSTDPPHHDHFDEFCLMP [H16F]: 2.65 and 2.67. The matching figures for HSLRAVSTDPPHHDHIDEFCLMP [H16I]: 2.87 and 1.65. Regarding HSLRAVSTDPPHHDHVDEFCLMP [H16V], the figures for the protein stability index in data set [1] and in data set [2] were 2.98 and 2, respectively. The matching figures for HSLRAVSTDPPHHDHEDEFCLMP [H16E]: 3.25 and 2.84. As for HSLRAVSTDPPHHDHLDEFCLMP [H16L], the values for the protein stability index in data set [1] and in data set [2] were 2.61 and 2.4, respectively. In the case of HSLRAVSTDPPHHDHSDEFCLMP [H16S], the protein stability index in data set [1] was found to be 2.54; in data set [2], 2.61. For the variant HSLRAVSTDPPHHDHWDEFCLMP [H16W], the protein stability index in data set [1] worked out at 2.32.

For HSLRAVSTDPPHHDHDDEFCLMP [H16D], the protein stability index in data set [1] amounted to 2.64; in data set [2] it was 2.29. Turning to HSLRAVSTDPPHHDHQDEFCLMP [H16Q], the protein stability index in data set [1] stood at 2.77; in data set [2], 2.17.

HSLRAVSTDPPHHDHNDEFCLMP [H16N]: the protein stability index was determined as 2.81 in data set [1] and 2.06 in data set [2]. Take HSLRAVSTDPPHHDHADEFCLMP [H16A]: the figures for the protein stability index in data set [1] and in data set [2] were 2.9 and 2.52, respectively. Taken in the same sequence, the figures for HSLRAVSTDPPHHDHYDEFCLMP [H16Y] were 2.58 and 2.61.

In the case of HSLRAVSTDPPHHDHTDEFCLMP [H16T], the protein stability index in data set [1] was found to be 2.69; in data set [2] it was 2.58. The matching figures for HSLRAVSTDPPHHDHMDEFCLMP [H16M]: 2.56 and 2.2. Turning to HSLRAVSTDPPHHDHGDEFCLMP [H16G], the protein stability index in data set [1] came to 2.64; in data set [2], 1.99.

As for HSLRAVSTDPPHHDHKDEFCLMP [H16K], the protein stability index in data set [1] stood at 2.81; in data set [2], 1.86. For HSLRAVSTDPPHHDHCDEFCLMP [H16C], the protein stability index in data set [1] worked out at 2.66; in data set [2] it was 2.44. Taken in the same sequence, the figures for HSLRAVSTDPPHHDHRDEFCLMP [H16R] were 2.34 and 2.24.

Take HSLRAVSTDPPHHDHHDGFCLMP [E18G]: the protein stability index in data set [1] amounted to 2.48. Regarding HSLRAVSTDPPHHDHHDIFCLMP [E18I], the protein stability index was 2.5 in data set [1] and 2.05 in data set [2]. Taken in the same sequence, the figures for HSLRAVSTDPPHHDHHDKFCLMP [E18K] were 1.95 and 3.01. The matching figures for HSLRAVSTDPPHHDHHDCFCLMP [E18C]: 2.85 and 2.46. The matching figures for HSLRAVSTDPPHHDHHDHFCLMP [E18H]: 2.32 and 3.57. On to HSLRAVSTDPPHHDHHDFFCLMP [E18F], for which the results for the protein stability index in data set [1] and in data set [2] were 2.12 and 3.33, respectively. Taken in the same sequence, the figures for HSLRAVSTDPPHHDHHDAFCLMP [E18A] were 2.37 and 1.58. Taken in the same sequence, the figures for HSLRAVSTDPPHHDHHCEFCLMP [D17C] were 2.46 and 2.45. As for HSLRAVSTDPPHHDHHSEFCLMP [D17S], the protein stability index in data set [1] came out at 2.31; in data set [2], 2.78.

Take HSLRAVSTDPPHHDHHNEFCLMP [D17N]: in data set [1], the protein stability index came out at 2.4.

For HSLRAVSTDPPHHDHHFEFCLMP [D17F], the protein stability index in data set [1] stood at 2.21; in data set [2], 3.35. Taken in the same sequence, the figures for HSLRAVSTDPPHHDHHGEFCLMP [D17G] were 2.11 and 1.88. Regarding HSLRAVSTDPPHHDHHMEFCLMP [D17M], the protein stability index in data set [1] is 2.3; in data set [2], 4.33.

For HSLRAVSTDPPHHDHHLEFCLMP [D17L], the protein stability index in data set [1] came to 2.54; in data set [2] it was 2.72.

With HSLRAVSTDPPHHDHHAEFCLMP [D17A], the results for the protein stability index in data set [1] and in data set [2] were 2.44 and 1.76, respectively. For the variant HSLRAVSTDPPHHDHHREFCLMP [D17R], in data set [1], the protein stability index worked out at 2.16.

Regarding HSLRAVSTDPPHHDHHYEFCLMP [D17Y], the protein stability index in data set [1] stood at 2.17; in data set [2], 3.33. As for HSLRAVSTDPPHHDHHVEFCLMP [D17V], the protein stability index in data set [1] is 2.33; in data set [2], 2.93. Taken in the same sequence, the figures for HSLRAVSTDPPHHDHHWEFCLMP [D17W] were 2.1 and 3.5. As to HSLRAVSTDPPHHDHHQEFCLMP [D17Q], the protein stability index in data set [1] is 2.2; in data set [2], 2.

For HSLRAVSTDPPHHDHHEEFCLMP [D17E], the protein stability index in data set [1] was 2.66; in data set [2], 2.59.

Consider HSLRAVSTDPPHHDHHHEFCLMP [D17H], for which the protein stability index in data set [1] is 2.21.

Take HSLRAVSTDPPHHDHHKEFCLMP [D17K]: the protein stability index in data set [1] is 2.4. With HSLRAVSTDPPHHDHHIEFCLMP [D17I], the protein stability index in data set [1] amounted to 2.57; in data set [2] it was 2.8. Taken in the same sequence, the figures for HSLRAVSTDPPHHDHHTEFCLMP [D17T] were 2.42 and 2.33.
